Results as given in publication PMC10381965.

Molecular target: CENP-A nucleosome (CENP-A^Nuc), histone octamer of CENP-A, H4, H2A and H2B wrapped with C0N3 or CEN3 DNA (S. cerevisiae) (UniProt P36012)
Assay: SEC-MALS; CENP-A nucleosome (C0N3 or CEN3 DNA), CENP-C, CENP-LN, CENP-OPQU+, CENP-HIK-TW, CBF1 and CBF3^Core mixed at 2 μM; cross-linked with 3 mM BS3; 10 mM Hepes pH 8.0, 80 mM NaCl, 1 mM EDTA, 0.5 mM TCEP

stoichiometry N: 2
Substance: CCAN, fully assembled (CENP-C, CENP-LN, CENP-OPQU+, CENP-HIK-TW) (from UniProt P35201 1-549; P38265 1-245; P38907 1-458; Q06675 1-368; Q02732 1-369; P53298 1-406; P38313 1-324; Q12493 1-238; Q06162 1-153; Q12262 1-181; Q12748 1-733; P47167 1-239; P43618 1-361; Q2V2P8 1-89) (complex)
